# Test results: patent publication US20070010433A1, “Use of compounds capable of inhibiting the proteolytic processing of semaphorins for prevention, treatment, diagnosis and prognosis of an invasive disease” (SEMA APS, priority 2002, published 2007)
# B1: Sema3E: wild-type full-length mouse Sema3E (SEQ ID NO: 1) expressed in 168FARN cells (protein, listed as Mus sp.)
# chain: MAPAGHILTLLLWGHLLELWTPGHSANPSYPRLRLSHKELLELNRTSIFQSPLGFLDLHTMLLDEYQERLFVGGRDLVYSLNLERVSDGYREIYWPSTAVKVEECIMKGKDANECANYIRVLHHYNRTHLLTCATGAFDPHCAFIRVGHHSEEPLFHLESHRSERGRGRCPFDPNSSFVSTLVGNELFAGLYSDYWGRDSAIFRSMGKLGHIRTEHDDERLLKEPKFVGSYMIPDNEDRDDNKMYFFFTEKALEAENNAHTIYTRVGRLCVNDMGGQRILVNKWSTFLKARLVCSVPGMNGIDTYFDELEDVFLLPTRDPKNPVIFGLFNTTSNIFRGHAVCVYHMSSIREAFNGPYAHKEGPEYHWSLYEGKVPYPRPGSCASKVNGGKYGTTKDYPDDAIRFARIDPLMYQPIKPVHKKPILVKTDGKYNLRQLAVDRVEAEDGQYDVLFIGTDTGIVLKVITIYNQETEWMEEVILEELQIFKDPAPIISMEISSKRQQLYIGSASAVAQVRFHHCDMYGSACADCCLARDPYCAWDGISCSRYYPTGAHAKRRFRRQDVRHGNAAQQCFGQQFVGDALDRTEERLAYGIESNSTLLECTPRSLQAKVIWFYQKGRDVRKEEVKTDDRVVKMDLGLLFLRVRKSDAGTYFCQTVEHNFVHTVRKITLEVVEEHKVEGMFHKDHEEERHHKMPCPPLSGMSQGTKPWYKEFLQLIGYSNFQRVEEYCEKVWCTDKKRKKLKMSPSKWKYANPQEKRLRSKAEHFRLPRHTLLS
# B2: p87:p87-Sema3E dimer: dimer of full-length p87-Sema3E purified from medium of transfected COS-7 cells (protein, UniProt O15041 1-775, looked up)
# chain: MASAGHIITLLLWGYLLELWTGGHTADTTHPRLRLSHKELLNLNRTSIFHSPFGFLDLHTMLLDEYQERLFVGGRDLVYSLSLERISDGYKEIHWPSTALKMEECIMKGKDAGECANYVRVLHHYNRTHLLTCGTGAFDPVCAFIRVGYHLEDPLFHLESPRSERGRGRCPFDPSSSFISTLIGSELFAGLYSDYWSRDAAIFRSMGRLAHIRTEHDDERLLKEPKFVGSYMIPDNEDRDDNKVYFFFTEKALEAENNAHAIYTRVGRLCVNDVGGQRILVNKWSTFLKARLVCSVPGMNGIDTYFDELEDVFLLPTRDHKNPVIFGLFNTTSNIFRGHAICVYHMSSIRAAFNGPYAHKEGPEYHWSVYEGKVPYPRPGSCASKVNGGRYGTTKDYPDDAIRFARSHPLMYQAIKPAHKKPILVKTDGKYNLKQIAVDRVEAEDGQYDVLFIGTDNGIVLKVITIYNQEMESMEEVILEELQIFKDPVPIISMEISSKRQQLYIGSASAVAQVRFHHCDMYGSACADCCLARDPYCAWDGISCSRYYPTGTHAKRRFRRQDVRHGNAAQQCFGQQFVGDALDKTEEHLAYGIENNSTLLECTPRSLQAKVIWFVQKGRETRKEEVKTDDRVVKMDLGLLFLRLHKSDAGTYFCQTVEHSFVHTVRKITLEVVEEEKVEDMFNKDDEEDRHHRMPCPAQSSISQGAKPWYKEFLQLIGYSNFQRVEEYCEKVWCTDRKRKKLKMSPSKWKYANPQEKKLRSKPEHYRLPRHTLDS
# modifications: full-length dimer
# notes: dimer of full-length p87-Sema3E purified from medium of transfected COS-7 cells
# B3: p61-Sema3E: 1-560 amino acid fragment of Sema3E, 61 kDa truncated isoform from furin cleavage (SEQ ID NO: 3) (protein, listed as Mus sp.)
# chain: MAPAGHILTLLLWGHLLELWTPGHSANPSYPRLRLSHKELLELNRTSIFQSPLGFLDLHTMLLDEYQERLFVGGRDLVYSLNLERVSDGYREIYWPSTAVKVEECIMKGKDANECANYIRVLHHYNRTHLLTCATGAFDPHCAFIRVGHHSEEPLFHLESHRSERGRGRCPFDPNSSFVSTLVGNELFAGLYSDYWGRDSAIFRSMGKLGHIRTEHDDERLLKEPKFVGSYMIPDNEDRDDNKMYFFFTEKALEAENNAHTIYTRVGRLCVNDMGGQRILVNKWSTFLKARLVCSVPGMNGIDTYFDELEDVFLLPTRDPKNPVIFGLFNTTSNIFRGHAVCVYHMSSIREAFNGPYAHKEGPEYHWSLYEGKVPYPRPGSCASKVNGGKYGTTKDYPDDAIRFARIDPLMYQPIKPVHKKPILVKTDGKYNLRQLAVDRVEAEDGQYDVLFIGTDTGIVLKVITIYNQETEWMEEVILEELQIFKDPAPIISMEISSKRQQLYIGSASAVAQVRFHHCDMYGSACADCCLARDPYCAWDGISCSRYYPTGAHAKRRFRR
# Experiments:
# [1] = test system: SVEC4-10 cells; test: Endothelial cell motility in blindwell chambers (SVEC4-10); type: cell-based, mouse; conditions: for cell-motility-stimulating activity of purified Sema3E isoform fractions: fractions from heparin-sepharose and size-exclusion chromatography of COS-7 medium
# Protocol: 200.000 endothelial mouse lymph nodes SVEC4-10 cells were suspended either in serum free DME/F12 (1:1) medium containing 25 mM Hepes pH 7.4, 0.1% BSA and D-glucose, or conditioned medium collected from cells expressing different Sema3E constructs and were loaded in the top compartments of blindwell chambers. The cells were left to adhere to fibronectin-coated polycarbonate filters within 3 h after seeding, and allowed to migrate through the pores of the filters in the next 3-6 h. Conditioned media from Sema3E or mock transfected 168FARN cells and COS-7 cells transfected with a pcDNA3.1: LacZ were used to examine the effect of the presence of Sema3E in the medium on endothelial cell motility. Migration of SVEC4-10 cells was evaluated after 5 h exposure to the conditioned media with or without Sema3E.
# The full-length Sema3E expressed in cells can give a raise to several naturally occurring isoforms of Sema3E, such as for example the truncated p61-Sema3E, a full-length p87-Sema3E, or a dimer p87:p87-Sema3E. The effect of different isoforms of Sema3E on cell motility was studied by using the isoforms purified from conditioned medium collected from tranfected COS-7 cells in the assay described above. The proteins were purified by heparin-sepharose affinity chromatography with following size-exclusion chromatography. All fractions collected from the size-exclusion column were tested for the presence of cell-motility-stimulating activity.
# [2] = test system: PC12E2 cells; test: Neurite outgrowth from PC12E2 cells; type: cell-based; conditions: for stimulatory effect on neurite outgrowth: chromatographic fractions of COS-7 conditioned medium, 48 h, compared to negative control (conditioned medium from COS-7 cells without Sema3E proteins)
# Protocol: Conditioned medium from COS-7 cells stably transfected with full-length Sema3E was collected and fractionated using heparin-sepharose affinity chromatography and consequent size-exlusion fractionation. Fractions containing different isoforms of Sema3E were collected and tested for neuritogenic activity.
# PC12E2 cells were plated on poly-L-lysine coated 48-well plates (Costar) (5,000 cells/well) and grown overnight in DME/F12 medium supplemented with 5% foetal calf serum (FCS) and 10% horse serum (HS) at 37 C°, 5% CO2. The chromatographic fractions were dialyzed against DME/F12 medium without serum, protein concentration was adjusted to 10 μg/ml, and diluted 1:1 in conditioned medium collected from non-transfected COS-7 cells grown for 72 h in serum free DME/F12 medium. PC12E2 cells were incubated with samples of different Sema3E fractions for 48 h, afterwards cells were fixed with 11% glutaraldehyde in PBS, washed in PBS and stained with 0.1% crystal violet in 20% methanol, and neurite outgrowth was quantified. […] A neurite outgrowth index was calculated in each experiment dividing the percentage of neurite outgrowth index in the test sample by the percentage of neurite outgrowth index in response to conditioned medium from COS7 cells without Sema3E proteins (negative control). Other controls were: nerve growth factor (NGF), tested at concentration 500 ng/ml (positive control), and non-fractionated conditioned medium from COS-7 cells expressing full-length Sema3E, tested at concentration 50 μg total protein/mi. Activity was defined as the index divided by 2.
# The truncated p61 isoform of Sema3E was further expressed as recombinant protein ([…]) in Pichia pastoris as described above, purified using Ni2+ affinity chromatography and tested in a neurite outgrowth assay described above. […] NGF at (positive control, 125 ng/ml) stimulated neurite outgrowth up to 40%.
# [3] = test system: 168FARN mouse tumor cells colonising the lungs; test: Experimental lung metastasis assay with transfected 168FARN cells; type: in vivo, Balb/c mice
# Protocol: Non-metastatic 168FARN mouse tumor cells were stably transfected with the pcDNA3.1(−)/zeo^R vector encoding a wild-type Sema3E, or mock transfected with the empty vector as described above. Two clones expressing secreted Sema3E, 168FARN: 2s and 168FARN: 14, and a mock transfected clone, 168FARN: 16 were tested for their ability to colonise the lungs in the experimental metastasis assay as described previously (Christensen et al, 1998, Cancer Res 58:1238-44). Briefly, 10^5 cells were injected in the tail vein of female Balb/c mice (age 8-9 weeks). 4 weeks later the lungs were examined for tumor growth.
# 168FARN cells were stably transfected with constructs encoding 1-560 amino acid fragment of the sequence Sema3E, which corresponds to 61 kDa fragment of Sema3E (p61-Sema3E), a full-length Sema3E mutated on KRRFRR site (Sema3E(−) (+)myc), and a wild-type full-length Sema3E as described above, and stable clones expressing the proteins were injected to mice to induce the experimental metastasis. 10^5 cells of each clone expressing different constructs were injected into the tail vein of female Balb/c mice. After 24 days the lungs were excised, weighted and scored for the presence of visible lung tumors. The p61-Sema3E clones (two groups: clone#1, n=8; clone#5, n=6) were highly aggressive compared to a control group (injected with the cells expressing a secreted alkaline phosphatase (AP)), showing an increase in overall lung weight at about 300%.
# [4] = test system: SVEC4-10 endothelial cells; test: 3D co-culture of SVEC4-10 and 168FARN aggregates in matrigel; type: cell-based, mouse; conditions: co-culture with transfected 168FARN aggregates 3-5 mm apart, 7 days
# Protocol: 100,000 cells in 10 μl were aggregated by incubation in a hanging drop at 37° C. for 4 h. The aggregates were moved onto a layer of solidified ECM gel (matrigel) so, that SVEC4-10 aggregates were placed 3-5 mm apart from the aggregates of 168FARN:AP (clone#3, control clone expressing AP), or 168FARN:p61-Sema3E (clone#5, expressing the non-tagged p61-sema3E isoform), or 168FARN:AP-p61-Sema3E (done#5, expressing the AP-tagged p61 isoform). Another layer of matrigel was added on the top of the aggregates. After 7 days of incubation aggregates were examined for invasive growth.
molecule,measurement,setting,value
heparin [reference compound],response of SVEC4-10 cells to p61-Sema3E-MH in presence of soluble heparin,[1]; heparin in the medium at 1-10 μg/ml,decreased the response of SVEC4-10 cells to the p61 -Sema3E-MH to the basal level
"NGF: nerve growth factor, positive control [reference compound]",stimulation of neurite outgrowth,"[2]; positive control, 125 ng/ml",up to 40%
B1,increase of overall weight of the lungs,"[3]; 10^5 168FARN cells expressing wild-type Sema3E, tail vein, 4 weeks",300%
same,lung colonisation / visible lung tumors,"[3]; 168FARN clones 2s and 14 expressing secreted Sema3E, 4 weeks, versus parental or mock transfected cells",colonized the lungs and produced large tumors
B2,cell-motility-stimulating activity of purified Sema3E isoform fractions,[1],failes to stimulate motility
same,stimulatory effect on neurite outgrowth,[2],28-35%
B3,increase in overall lung weight,"[3]; 168FARN clones #1 and #5, 10^5 cells tail vein, 24 days, versus control cells expressing secreted alkaline phosphatase (AP)",about 300%
same,lung weight versus groups with mutated Sema3E(−)(+)myc,"[3]; 168FARN clones, 24 days, compared to Sema3E(−)(+)myc clones #14 and #6",double increase
same,cell-motility-stimulating activity of purified Sema3E isoform fractions,[1],attractive for SVEC4-10 cells
same,invasive growth of SVEC4-10 endothelial cells,[4],invasion of SVEC4-10 endothelial cells was observed
same,stimulatory effect on neurite outgrowth,[2],24-39%
